Where “and” joins values, the source holds several entries; their conditions need not be identical. Identical values can stand only once.
Assays:
[1] = biological target: FcγRIIIA-streptavidin fusion protein (tetramer) (human; Streptomyces avidinii) (UniProt P08637); experiment: ELISA: antibody captured on protein A/G, FcγRIIIA tetramer (streptavidin fusion), biotin-HRP, OD450
[2] = biological target: FcγRIIIA (soluble receptor used as analyte in the BIAcore runs) (human) (UniProt P08637); experiment: BIAcore run 1, IgG immobilized, soluble FcγRIIIA, Scatchard plot
Chain of FcγRIIIA (soluble receptor used as analyte in the BIAcore runs) (human) (P08637 17-208): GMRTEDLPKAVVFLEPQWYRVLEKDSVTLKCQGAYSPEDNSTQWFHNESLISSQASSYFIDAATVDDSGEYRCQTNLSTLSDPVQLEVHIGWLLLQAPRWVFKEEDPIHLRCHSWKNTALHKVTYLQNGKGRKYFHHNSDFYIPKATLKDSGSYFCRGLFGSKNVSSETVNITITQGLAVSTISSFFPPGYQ

[3] = biological target: FcγRIIIA (soluble receptor used as analyte in the BIAcore runs) (human) (UniProt P08637); experiment: BIAcore run 2, IgG immobilized, soluble FcγRIIIA, steady-state isotherm
[4] = biological target: FcγRIIB-streptavidin fusion protein (tetramer) (human; Streptomyces avidinii) (UniProt P31994); experiment: ELISA: antibody captured on protein A/G, FcγRIIB-streptavidin, biotin-HRP, OD450
[5] = biological target: FcγRIIIA (soluble receptor used as analyte in the BIAcore runs) (human) (UniProt P08637); experiment: BIAcore run 2, IgG immobilized, soluble FcγRIIIA, Scatchard plot
[6] = biological target: FcγRIIIA (soluble receptor used as analyte in the BIAcore runs) (human) (UniProt P08637); experiment: BIAcore run 1, IgG immobilized, soluble FcγRIIIA, steady-state isotherm

Row | EC50 (read off the curve) [1] [µg/mL] | EC50 (read off the curve) [4] | Substance | other results
1 | 0.05 | – | 3F2-1M (3F2 Fc variant I332E, IgG1) (from UniProt P01857 1-330) (antibody) | –
2 | 0.05 | – | 3F2-3M (3F2 Fc variant S239D/A330L/I332E, IgG1) (from UniProt P01857 1-330) (antibody) | –
3 | – | 0.4 µg/mL and 0.3 µg/mL | Vitaxin® (wild type IgG1 antibody) | Kd [2]: 3.26 µM; Kd [3]: 8.9 µM; Kd [5]: 7.6 µM; Kd [6]: 3.47 µM
4 | – | 0.3 µg/mL | Vitaxin®-1M (Vitaxin® Fc variant I332E, IgG1) (from UniProt P01857 1-330) (antibody) | –

— patent US20060039904A1
